Residue numbers refer to the chain shown, from its start.

Test [1] has as its target T1, AnkG ANK repeats (residues 38-855, R1-24) (UniProt O70511 38-855).
T1 construct: Ankyrin-G (AnkG), ANK repeats R1-24, residues 38-855; In human Q12955 the same residues seem to stand 8 lower (I277 here = I269 there); Cloned into a modified pET32a vector; the tag is said to be removed only for the crystallisation proteins; also called AnkG R1-24; Ankyrin-G ankyrin repeats; source: E. coli BL21 (DE3), purified (Ni-NTA, size-exclusion chromatography)
T1 sequence (looked up): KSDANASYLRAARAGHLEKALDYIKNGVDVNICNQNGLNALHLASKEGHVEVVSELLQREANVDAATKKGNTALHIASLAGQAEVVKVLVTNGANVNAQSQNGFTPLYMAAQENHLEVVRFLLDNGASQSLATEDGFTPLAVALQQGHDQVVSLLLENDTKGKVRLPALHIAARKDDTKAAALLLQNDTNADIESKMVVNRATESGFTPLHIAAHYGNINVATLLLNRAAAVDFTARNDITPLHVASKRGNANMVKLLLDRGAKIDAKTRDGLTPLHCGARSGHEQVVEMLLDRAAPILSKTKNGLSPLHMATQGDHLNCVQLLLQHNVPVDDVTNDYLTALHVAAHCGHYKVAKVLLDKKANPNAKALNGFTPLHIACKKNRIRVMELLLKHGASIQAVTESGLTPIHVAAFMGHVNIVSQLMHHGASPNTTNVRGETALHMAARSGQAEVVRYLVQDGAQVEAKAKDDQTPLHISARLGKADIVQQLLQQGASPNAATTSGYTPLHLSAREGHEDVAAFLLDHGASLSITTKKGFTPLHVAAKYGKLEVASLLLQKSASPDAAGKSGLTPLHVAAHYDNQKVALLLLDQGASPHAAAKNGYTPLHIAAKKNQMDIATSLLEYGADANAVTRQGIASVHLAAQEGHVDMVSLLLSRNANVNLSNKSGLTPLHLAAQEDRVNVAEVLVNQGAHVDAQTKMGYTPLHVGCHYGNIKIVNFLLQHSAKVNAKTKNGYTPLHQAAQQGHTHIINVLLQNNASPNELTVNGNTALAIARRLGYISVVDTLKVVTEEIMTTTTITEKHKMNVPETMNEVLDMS
In words: ITC; VP-ITC at 25 °C; 50 mM Tris, 100 mM NaCl, 1 mM EDTA, 1 mM DTT, pH 7.8; Nfasc proteins (200 μM) in the syringe, AnkG proteins (20 μM) in the cell; one-site binding model. The following applies: both partners purified. (In general: Isothermal titration calorimetry measures the heat released or taken up as one component is titrated into another.)

For test [2], the target named is T2, AnkG R8-16 (AnkG 275 to 571) (UniProt O70511 275-571).
T2 construct: Ankyrin-G (AnkG), ANK repeats 8-16, residues 275-571 (limits are told for the crystallisation construct); In the crystal it stood fused behind the Nfasc ABD; also called eighth to sixteenth ANK repeats; source: E. coli BL21 (DE3), purified (Ni-NTA, size-exclusion chromatography)
T2 sequence (looked up): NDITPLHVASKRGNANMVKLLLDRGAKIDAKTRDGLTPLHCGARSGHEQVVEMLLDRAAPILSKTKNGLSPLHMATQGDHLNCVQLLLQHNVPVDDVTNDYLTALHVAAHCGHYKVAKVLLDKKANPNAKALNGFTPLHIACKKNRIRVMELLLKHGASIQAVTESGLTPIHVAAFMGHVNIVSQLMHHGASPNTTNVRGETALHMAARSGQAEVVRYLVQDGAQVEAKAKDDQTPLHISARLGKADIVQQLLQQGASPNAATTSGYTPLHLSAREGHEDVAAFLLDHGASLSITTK
The test is described as above. Particulars: both partners purified.

Another test concerns the target AnkG R6-16 (UniProt O70511). The description is as above.
The next test deals with T3, AnkG R1-24 T339A, N341A (Rattus norvegicus).
T3 chain: T1 sequence (looked up) with T302A, N304A
In words: ITC.

Sequence of AnkG R6-16 (O70511 whole entry): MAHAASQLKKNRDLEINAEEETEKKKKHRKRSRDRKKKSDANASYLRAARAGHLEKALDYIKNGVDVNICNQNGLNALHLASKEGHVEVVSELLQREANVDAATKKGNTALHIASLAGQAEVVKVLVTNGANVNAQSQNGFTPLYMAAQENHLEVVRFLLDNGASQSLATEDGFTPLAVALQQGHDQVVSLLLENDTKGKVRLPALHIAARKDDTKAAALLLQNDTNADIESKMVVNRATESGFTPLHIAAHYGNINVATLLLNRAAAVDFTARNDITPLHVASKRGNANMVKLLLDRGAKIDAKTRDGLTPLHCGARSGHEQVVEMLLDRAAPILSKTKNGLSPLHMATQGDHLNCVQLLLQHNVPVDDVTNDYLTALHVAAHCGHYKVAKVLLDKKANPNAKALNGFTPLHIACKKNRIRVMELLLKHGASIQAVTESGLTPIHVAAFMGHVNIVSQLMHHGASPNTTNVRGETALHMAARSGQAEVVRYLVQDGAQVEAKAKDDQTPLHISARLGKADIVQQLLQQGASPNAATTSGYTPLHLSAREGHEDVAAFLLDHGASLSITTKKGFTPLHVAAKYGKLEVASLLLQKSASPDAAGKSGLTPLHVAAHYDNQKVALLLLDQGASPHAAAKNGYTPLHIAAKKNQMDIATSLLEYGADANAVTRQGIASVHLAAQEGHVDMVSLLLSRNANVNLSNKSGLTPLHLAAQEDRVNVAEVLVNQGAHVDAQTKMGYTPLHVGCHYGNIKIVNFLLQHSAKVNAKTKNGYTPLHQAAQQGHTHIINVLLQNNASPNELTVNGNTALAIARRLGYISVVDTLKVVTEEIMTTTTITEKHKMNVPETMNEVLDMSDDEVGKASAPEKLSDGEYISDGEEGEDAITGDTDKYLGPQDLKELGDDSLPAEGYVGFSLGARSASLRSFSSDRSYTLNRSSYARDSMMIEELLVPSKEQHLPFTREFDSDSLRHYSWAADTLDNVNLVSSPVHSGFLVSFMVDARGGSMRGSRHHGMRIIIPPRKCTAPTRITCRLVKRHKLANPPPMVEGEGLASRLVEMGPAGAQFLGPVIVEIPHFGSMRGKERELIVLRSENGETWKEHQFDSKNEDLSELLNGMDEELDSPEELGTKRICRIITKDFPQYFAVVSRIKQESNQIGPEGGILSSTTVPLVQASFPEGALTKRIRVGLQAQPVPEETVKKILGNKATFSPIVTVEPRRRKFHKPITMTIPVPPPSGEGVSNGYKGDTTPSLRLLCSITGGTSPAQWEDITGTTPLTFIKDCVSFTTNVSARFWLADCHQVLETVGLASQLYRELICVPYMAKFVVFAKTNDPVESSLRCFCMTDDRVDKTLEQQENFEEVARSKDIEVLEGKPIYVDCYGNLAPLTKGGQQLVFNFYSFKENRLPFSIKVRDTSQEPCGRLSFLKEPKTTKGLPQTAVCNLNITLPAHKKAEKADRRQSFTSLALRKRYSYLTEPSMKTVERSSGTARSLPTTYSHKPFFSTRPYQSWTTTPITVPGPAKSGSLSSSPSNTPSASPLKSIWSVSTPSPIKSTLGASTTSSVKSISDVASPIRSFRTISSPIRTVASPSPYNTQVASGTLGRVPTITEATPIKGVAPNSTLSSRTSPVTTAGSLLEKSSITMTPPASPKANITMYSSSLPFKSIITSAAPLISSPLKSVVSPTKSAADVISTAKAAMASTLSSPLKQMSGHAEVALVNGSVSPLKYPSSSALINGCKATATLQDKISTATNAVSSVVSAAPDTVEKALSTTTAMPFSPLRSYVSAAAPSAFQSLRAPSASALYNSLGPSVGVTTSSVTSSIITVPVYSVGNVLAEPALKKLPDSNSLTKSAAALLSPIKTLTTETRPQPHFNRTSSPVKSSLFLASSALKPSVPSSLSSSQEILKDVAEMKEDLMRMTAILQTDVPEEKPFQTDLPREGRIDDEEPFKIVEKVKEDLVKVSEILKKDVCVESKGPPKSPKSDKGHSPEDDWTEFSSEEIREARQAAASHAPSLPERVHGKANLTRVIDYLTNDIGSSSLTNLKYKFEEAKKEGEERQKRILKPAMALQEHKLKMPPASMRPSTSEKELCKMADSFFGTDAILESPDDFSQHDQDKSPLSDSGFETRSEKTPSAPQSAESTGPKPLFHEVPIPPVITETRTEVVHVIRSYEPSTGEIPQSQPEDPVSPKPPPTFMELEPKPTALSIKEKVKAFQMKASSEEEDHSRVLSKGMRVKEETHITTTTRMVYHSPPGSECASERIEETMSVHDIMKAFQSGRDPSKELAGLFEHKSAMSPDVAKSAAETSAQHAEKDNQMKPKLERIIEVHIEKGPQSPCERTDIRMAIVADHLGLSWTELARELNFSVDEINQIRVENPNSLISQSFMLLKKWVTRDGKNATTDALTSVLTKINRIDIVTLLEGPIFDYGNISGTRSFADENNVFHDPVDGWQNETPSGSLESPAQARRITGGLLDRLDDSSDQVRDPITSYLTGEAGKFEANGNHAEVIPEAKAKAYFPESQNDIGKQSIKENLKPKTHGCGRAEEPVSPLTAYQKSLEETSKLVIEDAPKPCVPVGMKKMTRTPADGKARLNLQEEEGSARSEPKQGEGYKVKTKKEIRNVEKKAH

B1: Nfasc ankyrin-binding domain (ABD, residues 1187-1214) (domain or fragment, UniProt P97685 1187-1214, looked up)
chain: SDDSLVDYGEGGEGQFNEDGSFIGQYTV
notes: also called Nfasc ABD; source: E. coli BL21 (DE3), purified (Ni-NTA, size-exclusion chromatography)
As usually defined, the Kd is the free concentration of one partner at which half of the binding sites on the other are occupied at equilibrium, for simple one-to-one binding. A lower Kd goes with tighter binding. For the molecule B1, the Kd is approximately 220 nM in test [1]; approximately 1200 nM in test [2]; 290 nM in the test with AnkG R6-16; 2500 nM in the test with AnkG R1-24 T339A, N341A.

These data come from publication PMC9396398, “Crystal structure of Ankyrin-G in complex with a fragment of Neurofascin reveals binding mechanisms required for integrity of the axon initial segment” (The Journal of Biological Chemistry, 2022).
